# Experimental data reported in patent US20210139579A1.
# Target: human ROR1 (hROR1) on the cell surface (human) (UniProt Q01973)
# Test: cell-based or functional assay
# Sequence of human ROR1 (hROR1) on the cell surface (human) (Q01973 30-937): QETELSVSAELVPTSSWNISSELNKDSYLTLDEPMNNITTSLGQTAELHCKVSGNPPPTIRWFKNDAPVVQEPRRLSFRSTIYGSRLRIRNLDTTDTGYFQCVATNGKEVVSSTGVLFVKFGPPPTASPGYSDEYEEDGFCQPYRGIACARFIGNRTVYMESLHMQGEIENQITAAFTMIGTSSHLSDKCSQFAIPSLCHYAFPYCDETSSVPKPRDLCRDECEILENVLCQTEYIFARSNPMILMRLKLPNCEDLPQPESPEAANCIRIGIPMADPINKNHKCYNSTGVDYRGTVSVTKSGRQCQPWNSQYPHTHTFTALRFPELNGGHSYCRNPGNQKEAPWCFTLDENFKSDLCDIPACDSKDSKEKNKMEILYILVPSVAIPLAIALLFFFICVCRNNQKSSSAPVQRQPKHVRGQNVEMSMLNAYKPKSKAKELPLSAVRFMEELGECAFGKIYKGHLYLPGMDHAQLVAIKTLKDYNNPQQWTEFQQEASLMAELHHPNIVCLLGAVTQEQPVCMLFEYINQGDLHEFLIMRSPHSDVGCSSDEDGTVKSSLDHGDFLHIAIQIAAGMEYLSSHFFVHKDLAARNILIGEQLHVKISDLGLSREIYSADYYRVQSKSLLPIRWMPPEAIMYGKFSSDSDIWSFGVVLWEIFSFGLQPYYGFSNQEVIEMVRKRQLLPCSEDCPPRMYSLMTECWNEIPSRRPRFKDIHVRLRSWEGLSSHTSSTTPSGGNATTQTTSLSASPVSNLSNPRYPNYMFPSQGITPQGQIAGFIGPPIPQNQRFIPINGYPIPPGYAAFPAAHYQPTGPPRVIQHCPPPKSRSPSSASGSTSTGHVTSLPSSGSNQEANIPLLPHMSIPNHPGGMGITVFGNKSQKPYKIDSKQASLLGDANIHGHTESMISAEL
substance,measurement,value
2A2-G5-PNU (antibody),"IC50, in vitro cell killing of 697 cells",0.125 µg/mL
same,"IC50, in vitro cell killing of A549 cells",76.8 µg/mL
same,"IC50, in vitro cell killing of HS 578T cells",1.78 µg/mL
same,"IC50, in vitro cell killing of HT-29 cells",19.8 µg/mL
same,"IC50, in vitro cell killing of MDA-MB-468 cells",0.727 µg/mL
